Reference: US20240181006A1, “POLYPEPTIDES BINDING ADAMTS5, MMP13 AND AGGRECAN” (Merck Patent GmbH, priority 2017, published 2024)

Columns and labels:
Assay in all cases: cell-based or functional assay
[1] = biological target: dog MMP13 (activated) (dog)
[2] = biological target: bovine MMP13 (activated) (bovine) (UniProt O77656)
[3] = biological target: rat MMP13 (activated) (rat) (UniProt P23097)
[4] = biological target: cynomolgus MMP13 (activated) (cynomolgus)
[5] = biological target: human MMP13 (activated) (human) (UniProt P45452)

Substance: TIMP-2 (from UniProt P16035 27-220)
- IC50, dog fluorogenic peptide assay [1]: 900 pM
- IC50, bovine fluorogenic peptide assay [2]: 1100 pM
- IC50, rat fluorogenic peptide assay [3]: 400 pM
- IC50, cyno fluorogenic peptide assay [4]: 400 pM
- IC50, human collagenolytic assay [5]: 400 pM
- IC50, human fluorogenic collagen assay [5]: 2400 pM
- IC50, human fluorogenic peptide assay [5]: 500 pM
